According to publication PMC3648886:

Columns and labels:
Assay in all cases: FRET or BRET
[1] = target: Monocysteine-reactive type A CCK receptor construct N102C, derivatized with Alexa^546 at position 102 (UniProt P30551)
[2] = target: Monocysteine-reactive type A CCK receptor construct A204C, derivatized with Alexa^546 at position 204 (UniProt P30551)
[3] = target: Monocysteine-reactive type A CCK receptor construct C94, derivatized with Alexa^546 at position 94 (UniProt P30551)
[4] = target: Monocysteine-reactive type A CCK receptor construct T341C, derivatized with Alexa^546 at position 341 (UniProt P30551)

efficiency of energy transfer [1] [%]	efficiency of energy transfer [2] [%]	efficiency of energy transfer [3] [%]	efficiency of energy transfer [4] [%]	Substance
64	53	56	64	Aladan^24-CCK (peptide)
66	54	55	67	Aladan^29-CCK (peptide)
70	53	58	66	Aladan^33-CCK (peptide)
